The values below come from ChEMBL document CHEMBL6127040, “Discovery and optimization of isoliquiritigenin as a death-associated protein kinase 1 inhibitor” (Eur J Med Chem, 2024).

By kcat/Km is commonly meant the turnover number divided by the Michaelis constant. The Km is the concentration of substrate that gives half-maximal velocity. As usually defined, the kcat is the number of substrate molecules converted per active site and unit of time at saturation.

What all share (settings): Homo sapiens; time 1.0 hrs
Substrate in data set [1]: O=C(/C=C/c1ccc(O)c(O)c1)c1ccc(O)cc1O
Substrate in data set [2]: O=C(/C=C/c1ccc(O)cc1)c1ccc(O)cc1O
Substrate in data set [3]: Cc1cc(O)ccc1/C=C/C(=O)c1ccc(O)cc1O
Substrate in data set [4]: COc1cc(/C=C/C(=O)c2ccc(O)cc2O)ccc1O
Substrate in data set [5]: C=CCc1cc(/C=C/C(=O)c2ccc(O)cc2O)ccc1O
Substrate in data set [6]: CCCc1cc(/C=C/C(=O)c2ccc(O)cc2O)ccc1O
Substrate in data set [7]: O=C(/C=C/c1ccc(O)c(O)c1)c1ccc(O)cc1O
The source holds these as a separate data set.

Substrate in data set [8]: O=C(/C=C/c1ccc(O)cc1)c1ccc(O)cc1O
The source holds these as a separate data set.

Substrate in data set [9]: Cc1cc(O)ccc1/C=C/C(=O)c1ccc(O)cc1O
This is another data set of the same source.

Substrate in data set [10]: COc1cc(/C=C/C(=O)c2ccc(O)cc2O)ccc1O
This is another data set of the same source.

Substrate in data set [11]: C=CCc1cc(/C=C/C(=O)c2ccc(O)cc2O)ccc1O
This is another data set of the same source.

Substrate in data set [12]: CCCc1cc(/C=C/C(=O)c2ccc(O)cc2O)ccc1O
This is another data set of the same source.

Substrate in data set [13]: O=C(/C=C/c1ccc(O)c(O)c1)c1ccc(O)cc1O
The source holds these as a separate data set.
Description: (§1) Binding affinity to DAPK1 (unknown origin) assessed as catalytic rate incubated for 1 hr in presence of ATP by malachite green assay (Rvb = 3.0 +/- 0.15 /min)

Substrate in data set [14]: O=C(/C=C/c1ccc(O)cc1)c1ccc(O)cc1O
The source holds these as a separate data set.
Description: as §1

Substrate in data set [15]: Cc1cc(O)ccc1/C=C/C(=O)c1ccc(O)cc1O
This is another data set of the same source.
Description: as §1

Substrate in data set [16]: COc1cc(/C=C/C(=O)c2ccc(O)cc2O)ccc1O
This is another data set of the same source.
Description: as §1

Substrate in data set [17]: C=CCc1cc(/C=C/C(=O)c2ccc(O)cc2O)ccc1O
This is another data set of the same source.
Description: as §1

Substrate in data set [18]: CCCc1cc(/C=C/C(=O)c2ccc(O)cc2O)ccc1O
Description: as §1
This is another data set of the same source.

B1: Death-associated protein kinase 1 (Homo sapiens), P53355 (protein)
chain: MTVFRQENVDDYYDTGEELGSGQFAVVKKCREKSTGLQYAAKFIKKRRTKSSRRGVSREDIEREVSILKEIQHPNVITLHEVYENKTDVILILELVAGGELFDFLAEKESLTEEEATEFLKQILNGVYYLHSLQIAHFDLKPENIMLLDRNVPKPRIKIIDFGLAHKIDFGNEFKNIFGTPEFVAPEIVNYEPLGLEADMWSIGVITYILLSGASPFLGDTKQETLANVSAVNYEFEDEYFSNTSALAKDFIRRLLVKDPKKRMTIQDSLQHPWIKPKDTQQALSRKASAVNMEKFKKFAARKKWKQSVRLISLCQRLSRSFLSRSNMSVARSDDTLDEEDSFVMKAIIHAINDDNVPGLQHLLGSLSNYDVNQPNKHGTPPLLIAAGCGNIQILQLLIKRGSRIDVQDKGGSNAVYWAARHGHVDTLKFLSENKCPLDVKDKSGEMALHVAARYGHADVAQLLCSFGSNPNIQDKEEETPLHCAAWHGYYSVAKALCEAGCNVNIKNREGETPLLTASARGYHDIVECLAEHGADLNACDKDGHIALHLAVRRCQMEVIKTLLSQGCFVDYQDRHGNTPLHVACKDGNMPIVVALCEANCNLDISNKYGRTPLHLAANNGILDVVRYLCLMGASVEALTTDGKTAEDLARSEQHEHVAGLLARLRKDTHRGLFIQQLRPTQNLQPRIKLKLFGHSGSGKTTLVESLKCGLLRSFFRRRRPRLSSTNSSRFPPSPLASKPTVSVSINNLYPGCENVSVRSRSMMFEPGLTKGMLEVFVAPTHHPHCSADDQSTKAIDIQNAYLNGVGDFSVWEFSGNPVYFCCYDYFAANDPTSIHVVVFSLEEPYEIQLNQVIFWLSFLKSLVPVEEPIAFGGKLKNPLQVVLVATHADIMNVPRPAGGEFGYDKDTSLLKEIRNRFGNDLHISNKLFVLDAGASGSKDMKVLRNHLQEIRSQIVSVCPPMTHLCEKIISTLPSWRKLNGPNQLMSLQQFVYDVQDQLNPLASEEDLRRIAQQLHSTGEINIMQSETVQDVLLLDPRWLCTNVLGKLLSVETPRALHHYRGRYTVEDIQRLVPDSDVEELLQILDAMDICARDLSSGTMVDVPALIKTDNLHRSWADEEDEVMVYGGVRIVPVEHLTPFPCGIFHKVQVNLCRWIHQQSTEGDADIRLWVNGCKLANRGAELLVLLVNHGQGIEVQVRGLETEKIKCCLLLDSVCSTIENVMATTLPGLLTVKHYLSPQQLREHHEPVMIYQPRDFFRAQTLKETSLTNTMGGYKESFSSIMCFGCHDVYSQASLGMDIHASDLNLLTRRKLSRLLDPPDPLGKDWCLLAMNLGLPDLVAKYNTSNGAPKDFLPSPLHALLREWTTYPESTVGTLMSKLRELGRRDAADFLLKASSVFKINLDGNGQEAYASSCNSGTSYNSISSVVSR
With B1, the kcat/Km in data set [1] came to 417 M⁻¹ s⁻¹; in data set [2], 600 M⁻¹ s⁻¹; in data set [3], 650 M⁻¹ s⁻¹; in [4], 417 M⁻¹ s⁻¹; in [5], 1130 M⁻¹ s⁻¹; in data set [6] it was 583 M⁻¹ s⁻¹. Also, the Km in [7] amounted to 60 µM; in [8], 43 µM; in [9], 48 µM; in [10] it was 59 µM; in data set [11] it was 21 µM; in data set [12], 28 µM. Further, the kcat in data set [13] was 0.0367 s⁻¹; in data set [14], 0.0483 s⁻¹; in data set [15], 0.0383 s⁻¹; in data set [16] it was 0.0383 s⁻¹; in [17] it was 0.025 s⁻¹; in data set [18], 0.035 s⁻¹.
